The source of these data is patent US20150299296A1 (Chugai, published 2015).

Experiment [1] has as its target T1, human FcγRIIb extracellular domain with C-terminal His tag (human, UniProt P31994 43-217).
T1 construct: extracellular domain; For crystals it was expressed with kifunensine and trimmed with Endo F1; also called FcgRIIb; FcγRIIb extracellular region
T1 sequence (looked up): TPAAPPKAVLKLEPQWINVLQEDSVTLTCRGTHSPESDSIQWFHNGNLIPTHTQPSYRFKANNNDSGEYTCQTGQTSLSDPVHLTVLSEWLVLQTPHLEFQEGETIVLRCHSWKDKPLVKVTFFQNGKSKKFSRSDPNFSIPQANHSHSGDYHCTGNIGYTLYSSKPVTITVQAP
Description: SPR (Biacore), KD by the method of Reference Example 2 (Example 9-3). How it is done:
These variants were used for antibody expression and purification according to the method of Reference Example 1, and binding to each FcgR (FcgRIa. FcgRIIa type H, FcgRIIa type R, FcgRIIb, and FcgRIIIa type V) was assessed using the method of Reference Example 2.

The target in experiment [2] is T1, human FcγRIIb extracellular domain with …. Description: SPR KD ratio; reference is the same variant's KD for FcγRIIaR.
Experiment [3] shares this target. The experiment can be described thus: SPR KD ratio.
The target in experiment [4] is T2, human FcγRIa extracellular domain with C-terminal His tag (human, UniProt P12314 16-292).
T2 construct: Whole entry named; also called FcgRIa; FcgIa
T2 sequence (P12314 16-292): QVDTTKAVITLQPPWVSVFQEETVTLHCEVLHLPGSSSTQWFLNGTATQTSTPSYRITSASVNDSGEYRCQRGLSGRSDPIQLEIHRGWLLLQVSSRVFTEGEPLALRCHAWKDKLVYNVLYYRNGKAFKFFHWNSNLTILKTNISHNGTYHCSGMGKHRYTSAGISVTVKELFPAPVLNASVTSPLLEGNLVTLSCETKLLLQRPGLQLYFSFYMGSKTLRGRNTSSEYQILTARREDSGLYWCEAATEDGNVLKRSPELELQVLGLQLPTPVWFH
Description: SPR.

Experiment [5] deals with T3, human FcγRIIIa type V extracellular domain with C-terminal His tag (human, UniProt P08637 17-208).
T3 construct: extracellular domain; also called FcgRIIIaV; FcγRIIIaV
T3 sequence (P08637 17-208 F176V): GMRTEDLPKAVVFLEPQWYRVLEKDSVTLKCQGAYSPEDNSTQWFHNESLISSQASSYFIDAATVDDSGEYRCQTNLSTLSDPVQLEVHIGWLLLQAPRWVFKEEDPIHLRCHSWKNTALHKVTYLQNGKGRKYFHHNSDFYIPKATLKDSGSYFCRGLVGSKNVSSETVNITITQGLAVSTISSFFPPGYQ
Description: SPR.

The target in experiment [6] is T4, human FcγRIIa type H extracellular domain with C-terminal His tag (human, UniProt P12318 34-217).
T4 construct: extracellular domain; also called FcgRIIaH; FcγRIIa H
T4 sequence (looked up): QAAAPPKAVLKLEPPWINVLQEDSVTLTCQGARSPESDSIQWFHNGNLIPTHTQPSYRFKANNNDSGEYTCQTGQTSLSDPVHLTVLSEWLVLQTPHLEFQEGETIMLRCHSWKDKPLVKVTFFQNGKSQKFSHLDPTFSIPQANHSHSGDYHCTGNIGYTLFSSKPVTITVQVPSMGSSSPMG
The experiment can be described thus: SPR.

The target of experiment [7] is T1, human FcγRIIb extracellular domain with …. Description: SPR.
The target in experiment [8] is T2, human FcγRIa extracellular domain with …. The experiment can be described thus: SPR (Biacore): antibody captured on the chip, FcγR as analyte; amount bound divided by amount of antibody captured, relative to the antibody without mutation in B3 = 100 (Reference Examples 2 and 3).
In experiment [9] the target is T5, FcγRIIIa extracellular domain with C-terminal His tag, allotype not stated (Reference Example 4) (human, UniProt P08637 17-208).
T5 construct: extracellular domain
T5 sequence (P08637 17-208): as the sequence (P08637 17-208 F176V) above, with V160F counted along it
The description is as above.

Numbering of substitutions follows the chain as printed. Numbers in names are those of the source.

B1: IL6R-BP264/IL6R-L (antibody, human IgG1, kappa)
heavy: QVQLQESGPGLVKPSETLSLTCAVSGHSISHDHAWSWVRQPPGEGLEWIGFISYSGITNYNPSLQGRVTISRDNSKNTLYLQMNSLRAEDTAVYYCARSLARTTAMDYWGEGTLVTVSSASTKGPSVFPLAPSSKSTSGGTAALGCLVKDYFPEPVTVSWNSGALTSGVHTFPAVLQSSGLYSLSSVVTVPSSSLGTQTYICNVNHKPSNTKVDKKVEPKSCDKTHTCPPCPAPDLLGDDSVFLFPPKPKDTLMISRTPEVTCVVVDVSEEDGEVKFNWYVDGVEVHNAKTKPREEQDNSTYRVVSVLTVLHQDWLNGKEYKCKVSNKALPRPIEKTISKAKGQPREPQVYTLPPSRDELTKNQVSLTCLVKGFYPSDIAVEWESNGQPENNYKTTPPVLDSDGSFFLYSKLTVDKSRWQQGNVFSCSVMHEALHNHYTQESLSLSP
light: not shown
Consider B1, for which, in [1], the binding result is recorded as “binds”.

B2: IL6R-BP479/IL6R-L (antibody)
chain 1: B1 heavy with V266I, V268L, S269A, D298Y, R332A
chain 2: not shown
With B2, in experiment [2], the “KD (IIaR)/KD (IIb)” value turned out to be 16.1.

B3: IL6R-BP568/IL6R-L (antibody)
heavy: B1 heavy with D239G, V266I, S269A, D298Y, R332A
light: not shown
Regarding B3, the “fold binding against the native form” value in experiment [3] turned out to be 211 fold.

B4: IL6R-BP567/IL6R-L (antibody, human IgG1, kappa)
heavy: B1 heavy with D239G, V266I, S269A, R332A
light: not shown
In the case of B4, in experiment [2], the “KD (IIaR)/KD (IIb)” value stood at 64.4. Besides, the binding result in [4] is “binds”.

B5: IL6R-BP489/IL6R-L (antibody, human IgG1, kappa)
heavy: B1 heavy with V266I, S269A, P398M
light: not shown
For B5, the “fold binding (IL6R-B3/IL6R-L = 1)” value in experiment [3] is 3100 times.

B6: IL6R-BP495/IL6R-L (antibody, human IgG1, kappa)
heavy: B1 heavy with D235E, S269G
light: not shown
As for B6, in experiment [3], the “fold binding (IL6R-B3/IL6R-L = 1)” value is 321 times.

B7: IL6R-BP493/IL6R-L (antibody, human IgG1, kappa)
heavy: B1 heavy with D235E, D239G, V266I, S269A, R332A
light: not shown
As to B7, the “fold binding against the native form” value in [3] stood at 147 fold.

B8: IL6R-BP492/IL6R-L (antibody, human IgG1, kappa)
heavy: B1 heavy with D235E, D239G, V266I, S269A, D298Y, R332A
light: not shown
For the molecule B8, the “fold binding against the native form” value in [3] is 131 fold.

B9: IL6R-BP253/IL6R-L (antibody, human IgG1, kappa)
heavy: B1 heavy with D235E, D239G, D240P, S269E, E270H, G273P, D298Y, L330F, R332A
light: not shown
notes: IL6R-B3 with S267E and L328F; also called IL6R-BP253/ILR-L
Take B9: the binding result in experiment [5], in [4] and in experiment [6] was “binds” throughout.

B10: IL6R-BP436/IL6R-L (antibody, human IgG1, kappa)
heavy: B1 heavy with S269A, I334T
light: not shown
For B10, the binding result in experiment [7] and in [4] was “binds” each time.

B11: mutation B (antibody, human IgG1, kappa)
heavy chain: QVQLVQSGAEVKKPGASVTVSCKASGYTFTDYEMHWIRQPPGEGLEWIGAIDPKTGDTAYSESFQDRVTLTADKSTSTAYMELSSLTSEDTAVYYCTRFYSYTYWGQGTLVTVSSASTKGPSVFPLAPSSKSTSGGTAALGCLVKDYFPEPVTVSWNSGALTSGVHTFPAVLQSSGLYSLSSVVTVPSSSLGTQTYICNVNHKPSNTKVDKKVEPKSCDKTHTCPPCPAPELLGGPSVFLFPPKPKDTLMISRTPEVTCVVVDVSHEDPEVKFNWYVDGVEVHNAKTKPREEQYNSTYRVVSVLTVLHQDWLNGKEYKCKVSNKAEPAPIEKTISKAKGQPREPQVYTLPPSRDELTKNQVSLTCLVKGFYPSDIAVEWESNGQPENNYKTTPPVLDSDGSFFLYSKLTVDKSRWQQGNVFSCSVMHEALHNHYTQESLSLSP
light chain: DIVMTQSPLSLPVTPGEPASISCQASESLVHSNRNTYLHWYLQKPGQSPQLLIYKVSNRFSGVPDRFSGSGSGTDFTLKISRVEAEDVGVYYCSQNTHVPPTFGQGTKVEIERTVAAPSVFIFPPSDEQLKSGTASVVCLLNNFYPREAKVQWKVDNALQSGNSQESVTEQDSKDSTYSLSSTLTLSKADYEKHKVYACEVTHQGLSSPVTKSFNRGEC
notes: Legend: mutation B = Leu at 328 (EU numbering) substituted with Glu
Take B11: in [8], the binding result was “binds”.

B12: mutation A (antibody, human IgG1, kappa)
heavy chain: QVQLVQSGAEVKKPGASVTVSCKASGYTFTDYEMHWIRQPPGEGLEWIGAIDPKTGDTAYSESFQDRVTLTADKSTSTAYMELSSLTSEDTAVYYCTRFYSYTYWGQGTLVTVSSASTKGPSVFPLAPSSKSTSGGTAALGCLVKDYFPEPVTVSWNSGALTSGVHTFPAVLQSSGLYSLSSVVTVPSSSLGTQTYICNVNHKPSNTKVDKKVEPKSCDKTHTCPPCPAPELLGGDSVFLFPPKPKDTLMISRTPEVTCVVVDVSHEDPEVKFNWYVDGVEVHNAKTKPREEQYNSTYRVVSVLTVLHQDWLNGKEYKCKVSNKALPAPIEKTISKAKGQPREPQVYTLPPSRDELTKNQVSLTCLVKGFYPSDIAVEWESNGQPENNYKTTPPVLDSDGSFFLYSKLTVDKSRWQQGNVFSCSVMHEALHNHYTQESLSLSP
light chain: B11 light chain
On to B12, for which the figures for the binding result in experiment [8] and in experiment [9] were “binds” and “no binding”, respectively.
